The target of assay [1] is Myc-tagged LEF1 (UniProt Q9UJU2). Description: co-immunoprecipitation (anti-FLAG IP, immunoblot densitometry). The conditions noted are these: HEK293T cells, transfected; densitometry mean of three independent experiments; parent: 1.0. For orientation: In western blotting, separated proteins are transferred to a membrane and probed.
Assay [2] concerns the target Myc-tagged TCF7L2 (UniProt Q9NQB0). The assay is described as above. As to conditions: HEK293T cells, transfected; densitometry mean of three independent experiments; parent: 1.0.
UniProt Q9NQB0, sequence (Q9NQB0 whole entry): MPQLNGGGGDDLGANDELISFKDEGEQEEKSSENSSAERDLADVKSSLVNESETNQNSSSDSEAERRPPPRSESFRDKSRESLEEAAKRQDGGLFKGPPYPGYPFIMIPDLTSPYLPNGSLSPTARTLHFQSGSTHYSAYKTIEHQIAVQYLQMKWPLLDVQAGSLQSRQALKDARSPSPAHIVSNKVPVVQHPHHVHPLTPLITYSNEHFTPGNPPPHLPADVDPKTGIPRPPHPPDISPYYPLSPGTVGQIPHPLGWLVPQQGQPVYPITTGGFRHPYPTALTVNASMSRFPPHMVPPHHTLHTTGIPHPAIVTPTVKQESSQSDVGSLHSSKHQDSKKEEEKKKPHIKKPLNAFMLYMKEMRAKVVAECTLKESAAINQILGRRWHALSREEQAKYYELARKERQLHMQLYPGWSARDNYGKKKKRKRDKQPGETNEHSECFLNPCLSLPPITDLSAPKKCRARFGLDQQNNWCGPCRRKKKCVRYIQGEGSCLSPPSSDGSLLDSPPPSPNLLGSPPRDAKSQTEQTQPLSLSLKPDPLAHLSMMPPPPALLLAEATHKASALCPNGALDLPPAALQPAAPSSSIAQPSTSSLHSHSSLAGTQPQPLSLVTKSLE

UniProt Q9UJU2, sequence (Q9UJU2 whole entry): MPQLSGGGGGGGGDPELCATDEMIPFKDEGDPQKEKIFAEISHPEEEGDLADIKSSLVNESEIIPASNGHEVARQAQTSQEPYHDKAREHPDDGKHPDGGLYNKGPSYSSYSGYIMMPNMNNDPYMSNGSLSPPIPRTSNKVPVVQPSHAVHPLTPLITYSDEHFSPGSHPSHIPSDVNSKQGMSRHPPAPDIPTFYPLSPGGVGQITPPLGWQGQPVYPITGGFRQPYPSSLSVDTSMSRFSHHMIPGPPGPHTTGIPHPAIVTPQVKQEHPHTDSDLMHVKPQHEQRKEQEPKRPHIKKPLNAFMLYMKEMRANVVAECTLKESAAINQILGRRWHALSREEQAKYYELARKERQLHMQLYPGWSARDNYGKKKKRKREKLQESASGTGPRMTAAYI

With “FLAG-V5-tagged FBXW7α, wild type (from UniProt Q969H0) WD40 (three arginine residues within one WD40 repeat mutated; lane label WD)”, the ratio to parent in assay [1] was found to be 0.44; in assay [2], 0.17.

These data come from publication PMC10565641.
